From paper PMC4895691, “Suppressor of IKKɛ is an essential negative regulator of pathological cardiac hypertrophy” (Nature Communications, 2016)

Biological target: T1, Flag-tagged TBK1 (TANK-binding kinase 1), human, full length (human, UniProt Q9UHD2 1-729)
T1 construct: entire coding region cloned into the EcoRI and XhoI sites of pSicoR-Flag-C1; also called Flag-TBK1; pSicoR-Flag-TBK1; source: HEK293T, transfected, in lysate (co-IP); immunopurified from HEK293T and eluted with FLAG peptide (GST pull-down)
T1 sequence (looked up): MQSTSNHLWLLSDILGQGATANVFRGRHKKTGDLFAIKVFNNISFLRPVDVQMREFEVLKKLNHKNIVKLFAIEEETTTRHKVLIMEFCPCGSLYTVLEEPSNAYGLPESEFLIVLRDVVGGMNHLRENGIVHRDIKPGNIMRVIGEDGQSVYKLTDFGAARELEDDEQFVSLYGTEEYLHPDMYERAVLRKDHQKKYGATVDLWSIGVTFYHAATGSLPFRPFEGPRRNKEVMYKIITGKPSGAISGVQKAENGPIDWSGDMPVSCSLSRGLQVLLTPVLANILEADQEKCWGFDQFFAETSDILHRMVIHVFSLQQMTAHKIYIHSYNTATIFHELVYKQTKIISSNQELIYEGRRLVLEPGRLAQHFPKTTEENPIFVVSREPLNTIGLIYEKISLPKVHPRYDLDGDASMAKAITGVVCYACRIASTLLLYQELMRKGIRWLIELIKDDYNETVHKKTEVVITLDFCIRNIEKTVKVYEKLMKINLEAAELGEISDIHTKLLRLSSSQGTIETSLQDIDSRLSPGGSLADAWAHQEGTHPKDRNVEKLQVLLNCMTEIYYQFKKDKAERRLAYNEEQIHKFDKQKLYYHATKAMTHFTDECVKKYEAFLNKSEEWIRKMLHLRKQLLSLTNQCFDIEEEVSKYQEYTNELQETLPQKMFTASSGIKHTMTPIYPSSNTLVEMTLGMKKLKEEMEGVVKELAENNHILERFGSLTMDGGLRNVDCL
Test: pull-down; GST-SIKE from E. coli on glutathione-sepharose 4B beads incubated 4 h at 4 °C with immunopurified Flag-TBK1 from HEK293T; washed with IP lysis buffer, eluted with 20 mM reduced glutathione; anti-FLAG blot; GST tag as negative control
Settings: both partners purified

binding result: binds
B1: GST-SIKE fusion protein, human SIKE (natural protein, UniProt Q9BRV8 1-207, looked up)
chain: MSCTIEKILTDAKTLLERLREHDAAAESLVDQSAALHRRVAAMREAGTALPDQYQEDASDMKDMSKYKPHILLSQENTQIRDLQQENRELWISLEEHQDALELIMSKYRKQMLQLMVAKKAVDAEPVLKAHQSHSAEIESQIDRICEMGEVMRKAVQVDDDQFCKIQEKLAQLELENKELRELLSISSESLQARKENSMDTASQAIK
notes: Suppressor of IKKɛ (SIKE), human; human SIKE gene cloned into pGEX-4T-1; also called pGEX-4T-1-GST-SIKE; source: E. coli Rosetta (DE3), purified on glutathione-sepharose 4B beads
